Measurements published in patent US20220064279A1 (AstraZeneca / MedImmune, published 2022).

Target: endogenous LIF of U-251 glioma cells (human, UniProt P15018 23-202)
Test: cell-based or functional assay

endogenous LIF of U-251 glioma cells, sequence (P15018 23-202 limits assumed): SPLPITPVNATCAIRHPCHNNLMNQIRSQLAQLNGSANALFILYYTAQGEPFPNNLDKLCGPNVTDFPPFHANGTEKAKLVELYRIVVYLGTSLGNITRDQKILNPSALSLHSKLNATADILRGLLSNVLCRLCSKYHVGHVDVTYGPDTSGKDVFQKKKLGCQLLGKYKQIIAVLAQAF

IC50 for biological inhibition (pSTAT3, MSD assay, serum starved U-251 cells): 490 picomolar
B1: h5D8 (humanized 5D8, H2L2) (antibody, V domains shown)
VH: QVQLQESGGGLVKPGGSLRLSCAASGFTFSHAWMHWVRQAPGKGLEWVGQIKAKSDDYATYYAESVKGRFTISRDDSKNTLYLQMNSLKTEDTAVYYCTCWEWDLDFWGQGTMVTVSS
VL: DIVMTQTPLSSPVTLGQPASISCRSSQSLLDSDGHTYLNWLQQRPGQPPRLLIYSVSNLESGVPDRFSGSGAGTDFTLKISRVEAEDVGVYYCMQATHAPPYTFGQGTKLEIK
